Measurements from US20240059799A1 (Pfizer, published 2024).
Where two headings read alike, the source gives them in different places.

What was measured:
recombinant human TL1A [1] = target: T1, recombinant human TL1A (human, UniProt O95150 71-251); assay: SPR, 37 C; biotinylated human TL1A captured on Biotin CAPture chip, antibody injected
T1 construct: TL1A is described as a homotrimer; Biotinylated for SPR capture; also called TNFSF15
T1 chain: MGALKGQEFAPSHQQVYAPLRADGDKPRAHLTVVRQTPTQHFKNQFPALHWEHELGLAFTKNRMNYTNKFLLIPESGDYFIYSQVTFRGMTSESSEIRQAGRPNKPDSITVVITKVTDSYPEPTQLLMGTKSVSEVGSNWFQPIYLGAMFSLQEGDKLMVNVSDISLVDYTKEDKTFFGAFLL
Protocol: (§1) SPR was utilized to determine if the affinity constants of each arm of the bispecific variants binding human IL-23, containing the p40 subunit, and human TL1A were the same for each bispecific approach. For the analysis of the p40 binding arm, kinetic assays were conducted at 37° C. using a collection rate of 10 Hz on a Biacore™ 8 K+ instrument (GE Healthcare). An anti-human IgG antibody (anti-human Fc, GE Healthcare, 22-0648-88) was amine coupled to all four flow cells of a carboxymethylated dextran coated sensor chip (GE Healthcare,) using the manufacturer's recommended protocol. […] For the analysis of the TL1A binding arm, kinetic assays were conducted at 37° C. using a collection rate of 10 Hz on a Biacore™ T200 instrument (GE Healthcare).
(§2) As described above in EXAMPLE 12, SPR was utilized to determine if the affinity constants of each arm of the bispecific variants binding human IL-23, containing the p40 subunit, and human TL1A were the same for each bispecific variant.

human IL-23 = target: T2, human IL-23 (human, UniProt P29460 23-328; Q9NPF7 20-189); assay: SPR, 37 C; antibody captured by anti-human Fc, human IL-23 injected
T2 construct: also called recombinant human IL-23 (p40/p19)
T2 sequence 1: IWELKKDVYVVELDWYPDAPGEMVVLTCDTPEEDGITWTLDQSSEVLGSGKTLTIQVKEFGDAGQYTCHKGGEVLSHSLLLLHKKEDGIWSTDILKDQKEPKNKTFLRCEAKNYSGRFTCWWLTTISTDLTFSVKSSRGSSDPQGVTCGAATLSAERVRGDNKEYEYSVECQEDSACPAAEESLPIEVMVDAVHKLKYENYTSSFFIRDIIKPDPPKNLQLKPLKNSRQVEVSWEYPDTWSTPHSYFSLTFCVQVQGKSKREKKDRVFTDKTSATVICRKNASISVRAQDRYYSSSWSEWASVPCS
T2 sequence 2: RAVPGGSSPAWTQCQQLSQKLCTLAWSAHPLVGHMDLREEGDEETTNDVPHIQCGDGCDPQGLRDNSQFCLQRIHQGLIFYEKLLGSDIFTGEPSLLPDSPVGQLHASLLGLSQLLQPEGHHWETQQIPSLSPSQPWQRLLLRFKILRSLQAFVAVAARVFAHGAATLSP
Protocol: as §1, §2

recombinant human TL1A [2] = target: T1, recombinant human TL1A; assay: cell-based or functional assay
recombinant human TL1A [3] = target: T3, recombinant human TL1A (human, UniProt O95150 71-251); assay: cell-based or functional assay
T3 chain: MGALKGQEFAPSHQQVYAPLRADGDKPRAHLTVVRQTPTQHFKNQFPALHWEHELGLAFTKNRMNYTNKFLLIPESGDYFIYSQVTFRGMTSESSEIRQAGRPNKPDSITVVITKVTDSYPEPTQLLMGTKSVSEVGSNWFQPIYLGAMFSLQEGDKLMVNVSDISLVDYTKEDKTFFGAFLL

recombinant human TL1A [4] = target: T3, recombinant human TL1A; assay: competition ELISA, coated TL1A, competitor bio-TL1A-0002
[5] = target: T4, full-length human TL1A on CHO-K1 cells (human, UniProt O95150 1-251); assay: flow cytometry on CHO-K1 cells stably expressing full-length human TL1A, PE anti-human IgG, median fluorescent intensity
T4 construct: whole, on cells; also called cells over-expressing human TL1A
T4 sequence (looked up): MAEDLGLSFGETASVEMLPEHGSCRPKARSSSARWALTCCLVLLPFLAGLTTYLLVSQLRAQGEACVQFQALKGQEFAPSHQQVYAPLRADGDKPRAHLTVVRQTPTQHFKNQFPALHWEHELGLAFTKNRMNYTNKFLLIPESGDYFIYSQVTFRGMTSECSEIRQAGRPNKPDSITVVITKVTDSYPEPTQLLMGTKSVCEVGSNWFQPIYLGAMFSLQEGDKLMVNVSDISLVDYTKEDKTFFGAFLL
Protocol: A cell binding assay was performed to examine if the panel of [xTL1A] bivalent antibody variants could bind to human TL1A over-expressed on the cell surface. […] [xTL1A] bivalent antibody variants were incubated with cells on ice for 30-60 minutes at a concentration of either 1 μg/mL or 20 μg/mL. Cells were pelleted by centrifugation at 1500 RPM for 5 minutes at 4° C. and supernatant was discarded by aspiration. The cells were washed three times with DPBS with 4% FBS buffer as described. Cells were resuspended in 100 μL of PE-anti-human IgG (Life technologies Catalog number H10104) diluted 1:500 in DPBS with 4% FBS buffer and incubated on ice for 15 minutes. Cells were washed three times as described and resuspended in 200 μL of DPBS with 4% FBS buffer, then run on a flow cytometry instrument.

recombinant human TL1A [6] = target: T3, recombinant human TL1A; assay: competition ELISA on plate-coated recombinant human TL1A, competitor biotinylated TL1A-0260 (bio-TL1A-0260), streptavidin-HRP, OD450
Protocol: (§3) For this competition ELISA assay procedure, 96-well high binding plates (Corning, product number 3590) were coated with 1 μg/mL recombinant TL1A in 100 μL/well in Phospate Buffered Saline (PBS) overnight at 4° C. Plates were then blocked in PBS+0.02% casein solution and washed with PBS+0.05% Tween-20 following standard ELISA protocol. […] Plates were washed with PBS+0.05% Tween-20 following standard ELISA protocol, and Streptavidin-HRP (Southern Biotech, product number 7100-05) diluted to 1:10,000 in assay buffer was added to plates and incubated for 25-30 minutes at room temperature. Next, the plates were washed with PBS+0.05% Tween-20 following standard ELISA protocol, and then TMB substrate (BioFX Laboratories Catalog number TMBW-0100-01) was added to plates. Reactions were stopped after approximately 5 minutes by adding 0.18 M ortho-phosphoric acid to each well and absorbance was read at 450 nm.

recombinant human TL1A [7] = target: T3, recombinant human TL1A; assay: as above
Protocol: as §3

recombinant human TL1A [8] = target: T3, recombinant human TL1A; assay: as above
Protocol: as §3

recombinant human TL1A [9] = target: T3, recombinant human TL1A; assay: as above
Protocol: as §3

Binder	Kd (recombinant human TL1A [1])	koff (recombinant human TL1A [1])	kon (recombinant human TL1A [1])	Kd (human IL-23)	koff (human IL-23)	kon (human IL-23)	NF-κB assay IC50 (TF-1 reporter cells, 384-well) (recombinant human TL1A [2])	TF-1 NF-κB reporter cell bioassay IC50 (recombinant human TL1A [3])	TF-1 NF-κB reporter cell bioassay, Bioactivity relative to TL1A-0002 (recombinant human TL1A [3])	Whole blood IFNγ assay IC50 (recombinant human TL1A [3])	Whole blood IFNγ assay, Bioactivity relative to TL1A-0002 (recombinant human TL1A [3])	Bioactivity relative to TL1A-0002 (recombinant human TL1A [4])	IC50 (recombinant human TL1A [4])	binding result [5]	IC50 (read off the curve) (recombinant human TL1A [6])	IC50 (read off the curve) (recombinant human TL1A [7])	IC50 (read off the curve) (recombinant human TL1A [8])	IC50 (read off the curve) (recombinant human TL1A [9])	binding result (recombinant human TL1A [9])
p40TL1A-0041 KiH mFd bispecific antibody (bispecific antibody, KiH mFd format with the anti-p40 arm as modified Fd) heavy: QVQLVQSGAEVKKPGASVKVSCKASGYDYTYYGISWVRQAPGQGLEWMGWISTYNTGTHYAPSLQGRVTMTTDTSTSTAYMELRSLRSDDTAVYYCARESYYGSGAFRGGMDVWGQGTTVTVSSASTKGPSVFPLAPSSKSTSGGTAALGCLVKDYFPEPVTVSWNSGALTSGVHTFPAVLQSSGLYSLSSVVTVPSSSLGTQTYICNVNHKPSNTKVDKKVEPKSCDKTHTCPPCPAPEAAGAPSVFLFPPKPKDTLMISRTPEVTCVVVDVSHEDPEVKFNWYVDGVEVHNAKTKPREEQYNSTYRVVSVLTVLHQDWLNGKEYKCKVSNKALPAPIEKTISKAKGQPREPQVCTLPPSREEMTKNQVSLWCLVKGFYPSDIAVEWESNGQPENNYKTTPPVLDSDGSFFLYSKLTVDKSRWQQGNVFSCSVLHEALHSHYTQKSLSLSPGK light: not shown LC-Fc: not shown mFd: EVQLVQSGAEVKKPGESLKISCKGSGYSFTTYWLGWVRQMPGKGLDWIGIMSPVDSDIRYSPSFQGQVTMSVDKSITTAYLQWNSLKASDTAMYYCARRRPGQGYFDFWGQGTLVTVSSASTKGPSVFPLAPSSKSTSGGTAALGCLVKDYFPEPVTVSWNSGALTSGVHTFPAVLQSSGLYSLSSVVTVPSSSLGTQTYICNVNHKPSNTKVDKKVEPKSC	0.577 nM	7.56e-05 s⁻¹	131000 M⁻¹ s⁻¹	0.213 nM	0.000485 s⁻¹	2.29e+06 M⁻¹ s⁻¹	0.32 nM												
p40TL1A-0042 KiH mFd bispecific antibody (bispecific antibody, KiH mFd format with the anti-p40 arm as modified Fd) heavy: QVQLVQSGAEVKKPGASVKVSCKASGYDYTYYGISWVRQAPGQGLEWMGWISTYNTGTHYAPSLQGRVTMTTDTSTSTAYMELRSLRSDDTAVYYCARESYYGSGAFRGGMDVWGQGTTVTVSSASTKGPSVFPLAPSSKSTSGGTAALGCLVKDYFPEPVTVSWNSGALTSGVHTFPAVLQSSGLYSLSSVVTVPSSSLGTQTYICNVNHKPSNTKVDKKVEPKSCDKTHTCPPCPAPEAAGAPSVFLFPPKPKDTLMISRTPEVTCVVVDVSHEDPEVKFNWYVDGVEVHNAKTKPREEQYNSTYRVVSVLTVLHQDWLNGKEYKCKVSNKALPAPIEKTISKAKGQPREPQVYTLPPCREEMTKNQVSLSCAVKGFYPSDIAVEWESNGQPENNYKTTPPVLDSDGSFFLVSKLTVDKSRWQQGNVFSCSVLHEALHSHYTQKSLSLSPGK light: not shown LC-Fc: not shown mFd: EVQLVQSGAEVKKPGESLKISCKGSGYSFTTYWLGWVRQMPGKGLDWIGIMSPVDSDIRYSPSFQGQVTMSVDKSITTAYLQWNSLKASDTAMYYCARRRPGQGYFDFWGQGTLVTVSSASTKGPSVFPLAPSSKSTSGGTAALGCLVKDYFPEPVTVSWNSGALTSGVHTFPAVLQSSGLYSLSSVVTVPSSSLGTQTYICNVNHKPSNTKVDKKVEPKSC	0.419 nM	7.42e-05 s⁻¹	177000 M⁻¹ s⁻¹	0.207 nM	0.000488 s⁻¹	2.35e+06 M⁻¹ s⁻¹	0.32 nM												
TL1A-0260 (antibody, human IgG1, kappa, V domains shown, human IgG1 effector-function-minimized/kappa; also called bio-TL1A-0260 (biotinylated reporter)) VH: QVQLVQSGAEVKKPGASVKVSCKASGYDYTYYGISWVRQAPGQGLEWMGWISTYNTGTHYAPSLQGRVTMTTDTSTSTAYMELRSLRSDDTAVYYCARESYYGSGAFRGGMDVWGQGTTVTVSS VL: DIQMTQSPSSLSASVGDRVTITCRASQSVSSYLAWYQQKPGKAPKLLIYDASNRATGVPSRFSGSGSGTDFTLTISSLQPEDFATYYCQQRSNWPWTFGQGTKVEIKR								29.2 nM	0.8 fold	0.755 nM	0.9 fold	1.3 fold	6.8 nM	binds	~4 nM	~4 nM	~4 nM	~7 nM	
[xTL1A]-0341 (antibody, human IgG1, kappa, V domains shown, bivalent disabled antibody, IgG1 effector-function-minimized/kappa) VH: QVQLVQSGAEVKKPGASVKVSCKASGYTFTSYGISWVRQAPGQGLEWMGWISAYNGNTNYAQKLQGRVTMTTDTSTSTAYMELRSLRSDDTAVYYCARESSYGSEAFRAGMDVWGQGTTVTVSS VL: DIQMTQSPSSLSASVGDRVTITCRASQSVSSYLAWYQQKPGKAPKLLIYDASNRATGVPSRFSGSGSGTDFTLTISSLQPEDFATYYCQQRSNWPWTFGQGTKVEIKR														no binding (tested: 20 ug/mL)					no binding (tested: 300 nM)
p40TL1A-0040 KiH mFd bispecific antibody (bispecific antibody, Same format as p40TL1A-0033 with knob and hole swapped) heavy: EVQLVQSGAEVKKPGESLKISCKGSGYSFTTYWLGWVRQMPGKGLDWIGIMSPVDSDIRYSPSFQGQVTMSVDKSITTAYLQWNSLKASDTAMYYCARRRPGQGYFDFWGQGTLVTVSSASTKGPSVFPLAPSSKSTSGGTAALGCLVKDYFPEPVTVSWNSGALTSGVHTFPAVLQSSGLYSLSSVVTVPSSSLGTQTYICNVNHKPSNTKVDKKVEPKSCDKTHTCPPCPAPEAAGAPSVFLFPPKPKDTLMISRTPEVTCVVVDVSHEDPEVKFNWYVDGVEVHNAKTKPREEQYNSTYRVVSVLTVLHQDWLNGKEYKCKVSNKALPAPIEKTISKAKGQPREPQVYTLPPCREEMTKNQVSLSCAVKGFYPSDIAVEWESNGQPENNYKTTPPVLDSDGSFFLVSKLTVDKSRWQQGNVFSCSVLHEALHSHYTQKSLSLSPGK light: not shown LC-Fc: not shown mFd: QVQLVQSGAEVKKPGASVKVSCKASGYDYTYYGISWVRQAPGQGLEWMGWISTYNTGTHYAPSLQGRVTMTTDTSTSTAYMELRSLRSDDTAVYYCARESYYGSGAFRGGMDVWGQGTTVTVSSASTKGPSVFPLAPSSKSTSGGTAALGCLVKDYFPEPVTVSWNSGALTSGVHTFPAVLQSSGLYSLSSVVTVPSSSLGTQTYICNVNHKPSNTKVDKKVEPKSC	0.627 nM	8.22e-05 s⁻¹	131000 M⁻¹ s⁻¹	0.194 nM	0.00055 s⁻¹	2.83e+06 M⁻¹ s⁻¹	0.27 nM												
